Usually Kd stands for the free concentration of one partner at which half of the binding sites on the other are occupied at equilibrium, for simple one-to-one binding. The low end stands for tighter binding, the high end for weaker binding.

This note sets out measurements from patent US20260001953A1.

The assay addresses Sialic acid-binding immunoglobulin-like lectin 8 (SIGLEC-8), antigen of the Carterra SPR studies (UniProt Q9NYZ4). Description: SPR cross-reactivity table.

Sequence of Sialic acid-binding immunoglobulin-like lectin 8 (SIGLEC-8), antigen of the Carterra SPR studies (Q9NYZ4 17-363 limits assumed): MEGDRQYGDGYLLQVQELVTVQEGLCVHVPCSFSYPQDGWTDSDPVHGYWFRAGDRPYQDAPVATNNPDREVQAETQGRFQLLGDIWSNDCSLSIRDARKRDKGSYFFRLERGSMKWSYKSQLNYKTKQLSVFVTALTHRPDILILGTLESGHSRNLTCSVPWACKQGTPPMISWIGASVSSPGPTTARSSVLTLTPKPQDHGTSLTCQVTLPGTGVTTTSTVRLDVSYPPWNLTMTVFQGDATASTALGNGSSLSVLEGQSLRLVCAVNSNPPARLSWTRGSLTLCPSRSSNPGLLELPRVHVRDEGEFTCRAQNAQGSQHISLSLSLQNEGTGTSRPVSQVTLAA

Substance Control (antibody) registered a Kd of 0.031 nM.
